Laboratory results: the RNAGym collection of RNA variant scans (doi:10.1073/pnas.2313332121)
This sample holds only a part of the variants without activity.

B1: TPR 5TU (parent)
chain: GGAUCUUCUCGAUCUAACAAAAAAGACAAAUCUGCCACAAAGCUUGAGAGCAUCUUCGGAUGCAGAGGCGGCAGCCUUCGGUGGCGCGAUAGCGCCAACGUUCUCAACUAUGACACGCAAAACGCGUGCUCCGUUGAAUGGAGUUUAUCAUG

Variants of: B1
Assay: polymerase ribozyme fitness, log enrichment relative to wild type (log ratio); higher = more active; in vitro selection for triplet polymerase activity
How it was run: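 A single round of triplicate in vitro selection, including frozen incubation at −7 °C, was applied to PCR-built, transcribed mutant libraries of each subunit of a heterodimeric triplet polymerase ribozyme. Illumina sequencing of input and output libraries retained genotypes with ≥10 input reads and ≥1 read per output. Fitness is the base-2 logarithm of genotype enrichment divided by wild-type enrichment, from inverse-variance-weighted replicate averages.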

Variant | polymerase ribozyme fitness (log ratio)
C18A U33A U56A G88A C114U U130A | ≤ -4.2
C18U C57U G86A | -1.67
A17U A22C A23G G25A G50C U55A C75A G80A C87U U90C C103A | ≤ -4.2
C18U C93U G133U | ≤ -4.2
C18G C38A C93U C105U A113C | -4.17
C18A A26U G84A A138G | ≤ -4.2
C18A A28G A30C G46A G74C | ≤ -4.2
A17U A30G G42U G81C C85U A122U | ≤ -4.2
C18G C79G | -3.9
C18G U45C C96U C116A U130C | ≤ -4.2
A17U U31C G50A A64U C69A C99U | ≤ -4.2
A17U C32A A37U A41U | ≤ -4.2
A17U A60U | -0.153
A17U G65C A89U C93G G112C | ≤ -4.2
A17U A41U G86U A113C | ≤ -4.2
A17U C54A U90G C96A C118G | ≤ -4.2
C18U A21C U55A | -0.649
A17U G84A C123G | -0.525
C18G A24G G50U U55A A106C C125A | ≤ -4.2
A17U C129G | -2.62
C18U A37C G74C G81C | ≤ -4.2

Variant | polymerase ribozyme fitness (log ratio)
A17U A22U A26G G34U C57U G59A C93U | ≤ -4.2
C18A A20C U82C A122C | -1.71
A17U G83U | -1.65
C18G C93U G143U | -3.08
A17U A19C G42U U56C C76A G88A | ≤ -4.2
A17U U55A | -1.08
C18A A20U C69A G88U C93G C99G U111A G124A G140C | ≤ -4.2
A17U A37G U82A U144A | -2.56
C18U U31C U56G A138U G140A | -4
A17U C18G A41G A89C G126A C132U | -3.84
C18G A20C A52G A73U A120G | -3.02
C18U A39C C57U G83A C95U U148C C149A | ≤ -4.2
A17U G71A C87G G140U | ≤ -4.2
C18G U56A | -0.693
C18U C51U A89U C96A | -2.24
C18U C85G U145A | -1.19
C18U G34U G70A C85U C87U A91C G117A | ≤ -4.2
A17U A52U C57U C96U A98U C103G A121C G140C | ≤ -4.2
A17U A19C C87G A89U | ≤ -4.2
A17U A20C C85U U102G C116G | -3.83
C18A G141C | -0.603

Variant | polymerase ribozyme fitness (log ratio)
C18U A26U C75G G83A A122U G143A | -3.81
C18U A47G A52U G68U C79A C93U C99A G141C A142G G143U | ≤ -4.2
C18U G50C G88C C99U | ≤ -4.2
C18U A52U | -1.92
C18U G140C | -4.17
A17U C87U | -1.75
A17U U104A A106U G141C | ≤ -4.2
A17U G83A C96U C125U C129U | -1.96
A17U A24U C36A G59A U77G G83A A98U C105U C116G | ≤ -4.2
C18U U55A G81C C93U C105U C118G | -1.85
C18G A120C | -1.21
C18G G59A C75U C93A A107C C118A | ≤ -4.2
A17U C18U A20G C93U A115G | -4.19
C18A C38U C51U C96G C116G U148A | ≤ -4.2
A17U U31G C32A A150G | ≤ -4.2
A17U G92A | -2.84
C18G A26U C96A | -2.84
C18A A20U G71C G92C G143U U144G | ≤ -4.2
A17U A19U C93G U111G | ≤ -4.2
A17U G94C C132U | -1.54
C18G G84U | -1.93

Variant | polymerase ribozyme fitness (log ratio)
A17U A110U | ≤ -4.2
C18A G70A G84U U130G | ≤ -4.2
A17U A47C C51G U61A G83A | ≤ -4.2
C18G A20C C32A A40C U53A A91G | ≤ -4.2
C18G C43A A52C G71A A91U C95G U146C | ≤ -4.2
C18U C38G A40G U61A G81C C96A C116G A119U | ≤ -4.2
C18G C114G A122G | -3.64
A17U G92U U101G U127G U148A | -4.01
A17U G67C A91C C95U G100U A106U | ≤ -4.2
C18U C38G A40G U61A G81C C96A U146C | ≤ -4.2
C18G A23U A39G U55G A73U A89G A97U | ≤ -4.2
C18A A20U C27G A30U U56G A64U G84U U102C G112U G124C | ≤ -4.2
C18G C27U A40U C51U A52C C57G G88U C105U | ≤ -4.2
A17U C54A G92U C149U | -2.92
A17U U33G G34C A47G | ≤ -4.2
C18A A21G U33G C36A G84A G141C U144A C149U | ≤ -4.2
C18G A26U G86C A150U | -3.07
C18G C85U U101C | -0.76
C18G A19C G88A G92U C95U U134A | -4.03
A17U A20C C57U A60U C93A G94U A122C G126U | ≤ -4.2
